Assay results published in the supplement of paper PMC9112550, “Optimization of the antimicrobial peptide Bac7 by deep mutational scanning” (BMC Biology, 2022).

System: Escherichia coli TOP10
Assay: shrunken log2 fold change of peptide-encoding DNA abundance (4.5 h post-induction vs induction); higher = less antimicrobial activity (less host growth inhibition)
Conditions: time post-induction: 4.5 h; library: site-saturation at positions 5, 18, 19, 20
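Note: peptides expressed intracellularly from a pBAD plasmid library in pooled LB shake-flask culture, induced with 0.3% L-arabinose, DNA abundance read by NGS, three biological replicates, DESeq2 with apeglm shrinkage.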

| Sequence | shrunken log2 fold change |
| --- | --- |
| RRIRGRPPRLPRPRPRPCIAPRP | 0.797 |
| RRIRGRPPRLPRPRPRPCNKPRP | -0.442 |
| RRIRGRPPRLPRPRPRPCPLPRP | -0.0214 |
| RRIRGRPPRLPRPRPRPCTRPRP | 0.0901 |
| RRIRGRPPRLPRPRPRPCTSPRP | 0.188 |
| RRIRGRPPRLPRPRPRPCTWPRP | 0.228 |
| RRIRGRPPRLPRPRPRPCVKPRP | 0.063 |
| RRIRGRPPRLPRPRPRPCVTPRP | 1.34 |
| RRIRGRPPRLPRPRPRPCVYPRP | 0.486 |
| RRIRGRPPRLPRPRPRPCYTPRP | 0.498 |
| RRIRGRPPRLPRPRPRPDAGPRP | 0.601 |
| RRIRGRPPRLPRPRPRPDCCPRP | 1.34 |
| RRIRGRPPRLPRPRPRPDCGPRP | 0.879 |
| RRIRGRPPRLPRPRPRPDECPRP | -0.00184 |
| RRIRGRPPRLPRPRPRPDFEPRP | 0.988 |
| RRIRGRPPRLPRPRPRPDFPPRP | 0.414 |
| RRIRGRPPRLPRPRPRPDFVPRP | 0.0455 |
| RRIRGRPPRLPRPRPRPDHNPRP | 0.0326 |
| RRIRGRPPRLPRPRPRPDHRPRP | -0.178 |
| RRIRGRPPRLPRPRPRPDKGPRP | 0.00725 |
| RRIRGRPPRLPRPRPRPDLQPRP | 1.37 |
| RRIRGRPPRLPRPRPRPDMLPRP | 0.526 |
| RRIRGRPPRLPRPRPRPDMWPRP | 0.132 |
| RRIRGRPPRLPRPRPRPDNGPRP | -0.0263 |
| RRIRGRPPRLPRPRPRPDNYPRP | 0.0266 |

| Sequence | shrunken log2 fold change |
| --- | --- |
| RRIRGRPPRLPRPRPRPDPRPRP | 0.716 |
| RRIRGRPPRLPRPRPRPDQFPRP | 0.704 |
| RRIRGRPPRLPRPRPRPDQLPRP | 0.719 |
| RRIRGRPPRLPRPRPRPDRCPRP | 0.286 |
| RRIRGRPPRLPRPRPRPDRQPRP | -0.11 |
| RRIRGRPPRLPRPRPRPDSMPRP | 0.245 |
| RRIRGRPPRLPRPRPRPDVGPRP | 0.434 |
| RRIRGRPPRLPRPRPRPDVWPRP | 1.36 |
| RRIRGRPPRLPRPRPRPDWNPRP | 0.361 |
| RRIRGRPPRLPRPRPRPEDNPRP | 0.892 |
| RRIRGRPPRLPRPRPRPEEVPRP | 1.53 |
| RRIRGRPPRLPRPRPRPEEYPRP | 0.0595 |
| RRIRGRPPRLPRPRPRPEFQPRP | 0.226 |
| RRIRGRPPRLPRPRPRPEFVPRP | 1.15 |
| RRIRGRPPRLPRPRPRPEGGPRP | 1.17 |
| RRIRGRPPRLPRPRPRPEHQPRP | 0.529 |
| RRIRGRPPRLPRPRPRPEHRPRP | 0.102 |
| RRIRGRPPRLPRPRPRPEICPRP | 1.73 |
| RRIRGRPPRLPRPRPRPEIHPRP | 1.13 |
| RRIRGRPPRLPRPRPRPEIKPRP | 1.24 |
| RRIRGRPPRLPRPRPRPEKKPRP | 0.102 |
| RRIRGRPPRLPRPRPRPELFPRP | 1.63 |
| RRIRGRPPRLPRPRPRPELYPRP | 1.14 |
| RRIRGRPPRLPRPRPRPEMKPRP | 0.73 |
| RRIRGRPPRLPRPRPRPEMLPRP | 1.71 |

| Sequence | shrunken log2 fold change |
| --- | --- |
| RRIRGRPPRLPRPRPRPEMMPRP | 1.3 |
| RRIRGRPPRLPRPRPRPEMRPRP | 2.35 |
| RRIRGRPPRLPRPRPRPENDPRP | 1.74 |
| RRIRGRPPRLPRPRPRPENGPRP | 0.223 |
| RRIRGRPPRLPRPRPRPEQGPRP | 0.374 |
| RRIRGRPPRLPRPRPRPERAPRP | 1.4 |
| RRIRGRPPRLPRPRPRPERHPRP | 0.834 |
| RRIRGRPPRLPRPRPRPERIPRP | -0.0324 |
| RRIRGRPPRLPRPRPRPESIPRP | 0.483 |
| RRIRGRPPRLPRPRPRPESMPRP | 1.19 |
| RRIRGRPPRLPRPRPRPETKPRP | 0.374 |
| RRIRGRPPRLPRPRPRPEVMPRP | 1.41 |
| RRIRGRPPRLPRPRPRPEWGPRP | 0.544 |
| RRIRGRPPRLPRPRPRPEWPPRP | 1.13 |
| RRIRGRPPRLPRPRPRPFCSPRP | 0.143 |
| RRIRGRPPRLPRPRPRPFCYPRP | 0.362 |
| RRIRGRPPRLPRPRPRPFECPRP | 0.0132 |
| RRIRGRPPRLPRPRPRPFEGPRP | 0.0595 |
| RRIRGRPPRLPRPRPRPFEMPRP | 0.396 |
| RRIRGRPPRLPRPRPRPFENPRP | 0.0511 |
| RRIRGRPPRLPRPRPRPFFPPRP | 0.154 |
| RRIRGRPPRLPRPRPRPFINPRP | -0.165 |
| RRIRGRPPRLPRPRPRPFKKPRP | 0.0278 |
| RRIRGRPPRLPRPRPRPFLHPRP | 0.0811 |
| RRIRGRPPRLPRPRPRPFLWPRP | 0.996 |

| Sequence | shrunken log2 fold change |
| --- | --- |
| RRIRGRPPRLPRPRPRPFNKPRP | -0.158 |
| RRIRGRPPRLPRPRPRPFRDPRP | 0.0814 |
| RRIRGRPPRLPRPRPRPFRMPRP | 0.00538 |
| RRIRGRPPRLPRPRPRPFSTPRP | -0.0796 |
| RRIRGRPPRLPRPRPRPFTNPRP | 0.0545 |
| RRIRGRPPRLPRPRPRPFTQPRP | -0.0854 |
| RRIRGRPPRLPRPRPRPFVHPRP | 0.111 |
| RRIRGRPPRLPRPRPRPFYQPRP | 0.0158 |
| RRIRGRPPRLPRPRPRPFYWPRP | 0.161 |
| RRIRGRPPRLPRPRPRPGAFPRP | 0.773 |
| RRIRGRPPRLPRPRPRPGANPRP | 0.874 |
| RRIRGRPPRLPRPRPRPGCAPRP | 1.33 |
| RRIRGRPPRLPRPRPRPGCDPRP | 1.26 |
| RRIRGRPPRLPRPRPRPGCRPRP | 1.16 |
| RRIRGRPPRLPRPRPRPGDIPRP | 0.143 |
| RRIRGRPPRLPRPRPRPGDMPRP | 0.511 |
| RRIRGRPPRLPRPRPRPGDQPRP | 0.777 |
| RRIRGRPPRLPRPRPRPGEEPRP | 0.965 |
| RRIRGRPPRLPRPRPRPGENPRP | -0.0369 |
| RRIRGRPPRLPRPRPRPGEVPRP | 1.2 |
| RRIRGRPPRLPRPRPRPGGPPRP | 0.968 |
| RRIRGRPPRLPRPRPRPGHKPRP | 0.173 |
| RRIRGRPPRLPRPRPRPGHPPRP | 0.444 |
| RRIRGRPPRLPRPRPRPGIAPRP | 0.864 |
| RRIRGRPPRLPRPRPRPGLCPRP | 0.957 |

| Sequence | shrunken log2 fold change |
| --- | --- |
| RRIRGRPPRLPRPRPRPGLFPRP | 1.01 |
| RRIRGRPPRLPRPRPRPGMDPRP | 1.06 |
| RRIRGRPPRLPRPRPRPGMQPRP | 1.15 |
| RRIRGRPPRLPRPRPRPGMRPRP | 1.68 |
| RRIRGRPPRLPRPRPRPGNVPRP | 0.22 |
| RRIRGRPPRLPRPRPRPGPFPRP | 0.218 |
| RRIRGRPPRLPRPRPRPGPHPRP | 0.57 |
| RRIRGRPPRLPRPRPRPGPKPRP | 0.808 |
| RRIRGRPPRLPRPRPRPGPMPRP | 0.966 |
| RRIRGRPPRLPRPRPRPGPPPRP | 0.97 |
| RRIRGRPPRLPRPRPRPGPRPRP | 1.1 |
| RRIRGRPPRLPRPRPRPGPWPRP | 0.484 |
| RRIRGRPPRLPRPRPRPGPYPRP | 0.324 |
| RRIRGRPPRLPRPRPRPGQSPRP | -0.00151 |
| RRIRGRPPRLPRPRPRPGRMPRP | 0.727 |
| RRIRGRPPRLPRPRPRPGSCPRP | 1.03 |
| RRIRGRPPRLPRPRPRPGSWPRP | 0.938 |
| RRIRGRPPRLPRPRPRPGTLPRP | 0.351 |
| RRIRGRPPRLPRPRPRPGTWPRP | 0.255 |
| RRIRGRPPRLPRPRPRPGVIPRP | 0.375 |
| RRIRGRPPRLPRPRPRPGWWPRP | 0.113 |
| RRIRGRPPRLPRPRPRPGYLPRP | 0.0499 |
| RRIRGRPPRLPRPRPRPGYMPRP | -0.0736 |
| RRIRGRPPRLPRPRPRPHAAPRP | 1.47 |
| RRIRGRPPRLPRPRPRPHANPRP | 0.361 |

| Sequence | shrunken log2 fold change |
| --- | --- |
| RRIRGRPPRLPRPRPRPHAVPRP | 0.657 |
| RRIRGRPPRLPRPRPRPHAWPRP | 0.595 |
| RRIRGRPPRLPRPRPRPHCAPRP | 0.606 |
| RRIRGRPPRLPRPRPRPHCLPRP | 0.196 |
| RRIRGRPPRLPRPRPRPHDHPRP | -0.027 |
| RRIRGRPPRLPRPRPRPHECPRP | 0.504 |
| RRIRGRPPRLPRPRPRPHESPRP | 0.784 |
| RRIRGRPPRLPRPRPRPHGEPRP | 0.164 |
| RRIRGRPPRLPRPRPRPHHCPRP | -0.118 |
| RRIRGRPPRLPRPRPRPHHMPRP | -0.219 |
| RRIRGRPPRLPRPRPRPHKTPRP | -0.0617 |
| RRIRGRPPRLPRPRPRPHLTPRP | 0.357 |
| RRIRGRPPRLPRPRPRPHMTPRP | 1.45 |
| RRIRGRPPRLPRPRPRPHPFPRP | -0.0384 |
| RRIRGRPPRLPRPRPRPHPMPRP | 0.497 |
| RRIRGRPPRLPRPRPRPHPRPRP | 0.839 |
| RRIRGRPPRLPRPRPRPHQCPRP | -0.0129 |
| RRIRGRPPRLPRPRPRPHQIPRP | 0.103 |
| RRIRGRPPRLPRPRPRPHQNPRP | 0.58 |
| RRIRGRPPRLPRPRPRPHQQPRP | 0.101 |
| RRIRGRPPRLPRPRPRPHQYPRP | -0.226 |
| RRIRGRPPRLPRPRPRPHRMPRP | -0.101 |
| RRIRGRPPRLPRPRPRPHSSPRP | -0.144 |
| RRIRGRPPRLPRPRPRPHTGPRP | -0.0945 |
| RRIRGRPPRLPRPRPRPHTSPRP | -0.00444 |
